This passage reports IC50 and Kd results from patent US20170044259A1 (published 2017).

For assay [1], the target named is T1, human PD-1-Fc (R and D systems, Minneapolis, Minn.) (human, UniProt Q15116 25-167). Put plainly: inhibition ELISA; hPDL-2 Fc blockade.
In assay [2] the target is T1, human PD-1-Fc (R and D systems, …). Put plainly: inhibition ELISA; hPDL-1 Fc blockade. Background: ELISA stands for enzyme-linked immunosorbent assay.
Assay [3] addresses human PD-1-His (R & D systems, Minneapolis, Minn.) (human, UniProt Q15116 25-167). Put plainly: BLI. For orientation: BLI is a label-free optical method that tracks binding on a fibre tip over time.
Assay [4] has as its target T1, human PD-1-Fc (R and D systems, …). Put plainly: ELISA; upper right panel.
For assay [5] the target is unchanged. Put plainly: ELISA; upper left panel.
Assay [6] has the same target. Put plainly: ELISA; lower right panel.
For assay [7] the target is unchanged. Put plainly: ELISA; lower left panel.
Assay [8] has the same target. Put plainly: inhibition ELISA; hPDL-2 Fc blockade. The source holds these as a separate data set.
Assay [9] shares this target. Put plainly: inhibition ELISA; hPDL-1 Fc blockade. The source holds these as a separate data set.
Assay [10] has the same target. Put plainly: inhibition ELISA; hPDL-1 Fc blockade. The source holds these as a separate data set.
Assay [11] shares this target. Put plainly: inhibition ELISA; hPDL-2 Fc blockade. The source holds these as a separate data set.

What is called IC50 is the concentration that gives 50% inhibition. Higher therefore signals a need for much substance. As usually defined, the Kd is the concentration at which binding is half-saturated.

Positions count from the first letter of the chain named.

T1 sequence (Q15116 25-167): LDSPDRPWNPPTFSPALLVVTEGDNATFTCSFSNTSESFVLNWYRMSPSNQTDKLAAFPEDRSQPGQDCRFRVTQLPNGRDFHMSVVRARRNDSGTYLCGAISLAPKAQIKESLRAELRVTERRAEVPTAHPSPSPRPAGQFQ
Sequence of human PD-1-His (R & D systems, Minneapolis, Minn.) (Q15116 25-167): as above

B1: Bb2 (antibody, V domains shown)
VH: QVQLVQSGAEVKKPGASVKMSCKASGYTFTDYYMDWVRQAPGQGLEWIGYIYPKNGGSSYAQKFQGRATLTVDKSTSTAYMELSSLRSEDTAVYYCARKVVATDYWGQGTLLTVSS
VL: DIQMTQSPSSLSASVGDRVTMTCKSSQSLLYSSNQKNYLAWYQQKPGKAPKLLIFWASIRESGVPSRFSGSGSGTDFTLTISSVQPEDFATYYCQQSDSYPWTFGQGTKLEIKR
As to B1, the IC50 was found to be 1.83 nM in [1] and 1.67 nM in assay [2]. This molecule also gave an equilibrium dissociation constant (Kd) in assay [3] of 5.04 nM.

B2: Ba2 (antibody, V domains shown)
VH: B1 VH with K74T
VL: B1 VL
As to B2, the IC50 in assay [1] was 1.2 nM; in assay [2], 2.2 nM.

B3: PD-1 1.5 PD012 2001 (antibody)
heavy: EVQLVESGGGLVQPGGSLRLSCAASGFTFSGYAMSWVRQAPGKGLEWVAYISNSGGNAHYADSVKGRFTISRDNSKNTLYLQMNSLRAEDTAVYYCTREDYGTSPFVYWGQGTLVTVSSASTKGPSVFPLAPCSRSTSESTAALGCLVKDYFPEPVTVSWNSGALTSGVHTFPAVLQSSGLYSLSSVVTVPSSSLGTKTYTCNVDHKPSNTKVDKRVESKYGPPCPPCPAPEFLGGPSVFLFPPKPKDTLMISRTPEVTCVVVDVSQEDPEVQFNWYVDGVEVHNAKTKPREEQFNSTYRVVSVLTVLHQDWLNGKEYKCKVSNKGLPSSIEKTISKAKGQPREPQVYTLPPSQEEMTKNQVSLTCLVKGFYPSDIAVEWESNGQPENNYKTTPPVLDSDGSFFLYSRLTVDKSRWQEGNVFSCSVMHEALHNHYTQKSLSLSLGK
light: QGQSGQGNWLDCQFYSECSVYGGGGSSGGSISSGLLSGRSDNHGGGSDIQLTQSPSSLSASVGDRVTITCRASESVDAYGISFMNWFQQKPGKAPKLLIYAASNQGSGVPSRFSGSGSGTDFTLTISSMQPEDFATYYCQQSKDVPWTFGQGTKLEIKRTVAAPSVFIFPPSDEQLKSGTASVVCLLNNFYPREAKVQWKVDNALQSGNSQESVTEQDSKDSTYSLSSTLTLSKADYEKHKVYACEVTHQGLSSPVTKSFNRGEC
Turning to B3, the dissociation constant Kd in [4] stood at 1.74 nM.

B4: PD-1 1.5 PD006 2001 (antibody)
heavy: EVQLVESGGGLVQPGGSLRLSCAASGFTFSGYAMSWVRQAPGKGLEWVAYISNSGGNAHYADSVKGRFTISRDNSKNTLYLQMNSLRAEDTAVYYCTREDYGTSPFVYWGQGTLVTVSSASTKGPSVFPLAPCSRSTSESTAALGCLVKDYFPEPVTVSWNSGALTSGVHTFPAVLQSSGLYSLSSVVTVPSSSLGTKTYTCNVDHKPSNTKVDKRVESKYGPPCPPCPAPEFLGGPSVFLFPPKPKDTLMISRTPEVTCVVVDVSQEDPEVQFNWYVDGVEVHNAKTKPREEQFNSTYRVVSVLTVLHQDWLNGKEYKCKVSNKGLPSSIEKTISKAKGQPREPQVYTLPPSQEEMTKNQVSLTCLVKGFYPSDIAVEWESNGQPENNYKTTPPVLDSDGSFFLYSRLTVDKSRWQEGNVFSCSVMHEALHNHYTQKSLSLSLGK
light: QGQSGQGAPRCYMFASYCKSQYGGGSSGGSISSGLLSGRSDNHGGGSDIQLTQSPSSLSASVGDRVTITCRASESVDAYGISFMNWFQQKPGKAPKLLIYAASNQGSGVPSRFSGSGSGTDFTLTISSMQPEDFATYYCQQSKDVPWTFGQGTKLEIKRTVAAPSVFIFPPSDEQLKSGTASVVCLLNNFYPREAKVQWKVDNALQSGNSQESVTEQDSKDSTYSLSSTLTLSKADYEKHKVYACEVTHQGLSSPVTKSFNRGEC
Consider B4, for which the dissociation constant (Kd) in assay [5] turned out to be 5.66 nM.

B5: PD-1 1.5 PD028 2001 (antibody)
heavy: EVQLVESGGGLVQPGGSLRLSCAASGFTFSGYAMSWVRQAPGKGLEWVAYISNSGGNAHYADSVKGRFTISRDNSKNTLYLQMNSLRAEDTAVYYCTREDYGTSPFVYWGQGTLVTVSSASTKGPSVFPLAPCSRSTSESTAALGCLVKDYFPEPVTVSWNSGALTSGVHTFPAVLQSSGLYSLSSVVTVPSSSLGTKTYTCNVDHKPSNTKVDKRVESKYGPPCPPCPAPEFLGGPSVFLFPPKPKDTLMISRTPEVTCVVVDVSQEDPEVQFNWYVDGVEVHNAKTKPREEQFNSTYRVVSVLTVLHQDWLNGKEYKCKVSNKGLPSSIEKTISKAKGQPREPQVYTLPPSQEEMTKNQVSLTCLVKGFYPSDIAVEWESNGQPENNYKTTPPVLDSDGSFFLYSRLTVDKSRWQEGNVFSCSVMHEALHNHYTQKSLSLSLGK
light: B4 light with A8F, P9Q, R10P, Y12L, Y17S, K19F, S20T, Q21S, Y22K
B5: in [6], binding was characterised by a dissociation constant (Kd) of 4.97 nM.

B6: A1.5 PD34 2001 (antibody)
heavy: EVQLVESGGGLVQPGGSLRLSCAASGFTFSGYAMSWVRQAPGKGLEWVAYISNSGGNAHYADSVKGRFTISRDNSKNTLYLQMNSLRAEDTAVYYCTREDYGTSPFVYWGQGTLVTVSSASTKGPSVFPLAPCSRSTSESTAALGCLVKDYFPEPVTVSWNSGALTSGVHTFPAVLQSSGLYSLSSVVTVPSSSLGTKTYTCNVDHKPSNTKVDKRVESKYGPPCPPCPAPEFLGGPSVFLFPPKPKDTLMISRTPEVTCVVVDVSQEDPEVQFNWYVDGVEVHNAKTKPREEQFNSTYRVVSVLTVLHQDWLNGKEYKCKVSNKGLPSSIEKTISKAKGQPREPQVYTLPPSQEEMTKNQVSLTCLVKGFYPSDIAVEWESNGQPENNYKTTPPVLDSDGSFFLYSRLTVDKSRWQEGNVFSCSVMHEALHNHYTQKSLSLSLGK
light: QGQSGQGTSYCSIEHYPCNTHHGGGSSGGSISSGLLSGRSDNHGGGSDIQLTQSPSSLSASVGDRVTITCRASESVDAYGISFMNWFQQKPGKAPKLLIYAASNQGSGVPSRFSGSGSGTDFTLTISSMQPEDFATYYCQQSKDVPWTFGQGTKLEIKRTVAAPSVFIFPPSDEQLKSGTASVVCLLNNFYPREAKVQWKVDNALQSGNSQESVTEQDSKDSTYSLSSTLTLSKADYEKHKVYACEVTHQGLSSPVTKSFNRGEC
In the case of B6, the Kd in assay [6] is 8.12 nM; in [4] it was 7.3 nM; in assay [5], 9.37 nM; in [7], 8.4 nM.

B7: C1.1 (antibody, V domains shown)
VH: EVQLVESGGGLVQPGGSLRLSCAASGFTFSNYAMSWVRQAPGKGLEWVAYISNGGGDTHYADSLKGRFTVSRDNSKNTLYLQMNSLRAEDTAVYYCARENYGTSPFVYWGQGTLVTVSS
VL: DIQLTQSPSSLSVSVGDRATITCRASESVDNYGISFMNWFQQKPGKAPKLLIYAASNQGSGVPSRFSGSGSGTDFTLTISSMQPEDFATYYCQQSKDVPWTFGQGTKLEIKR
On to B7, for which the concentration for half-maximal inhibition (IC50) in [1] amounted to 1.2 nM; in assay [8], 3.07 nM; in assay [2] it was 1.32 nM; in assay [9], 3.73 nM. Moreover, the Kd in assay [3] is 12.4 nM.

B8: A1.4 (antibody, V domains shown)
VH: B7 VH with N31G, G54S, D57N, T58A, L64V, V70I, A97T, N100D
VL: B7 VL with V13A, A19V, N31S
Regarding B8, the half-inhibitory concentration (IC50) in [10] turned out to be 1.92 nM; in [11], 1.29 nM.

B9: A1.0 (antibody, V domains shown)
VH: B7 VH with N31G, G54S, D57N, T58A, L64V, V70I, A97T, N100D
VL: B7 VL with V13A, A19V
Consider B9, for which the half-maximal inhibitory concentration (IC50) in assay [10] came out at 1.85 nM; in assay [11], 1.04 nM.

B10: A1.2 (antibody, V domains shown)
VH: B7 VH with N31G, G54S, D57N, T58A, L64V, V70I, A97T, N100D
VL: B7 VL with V13A, A19V, N31Q
Turning to B10, the figures for the IC50 in [10] and in [11] were 1.55 nM and 1.01 nM, respectively.

B11: PD-1 1.5 PD019 2001 (antibody)
heavy: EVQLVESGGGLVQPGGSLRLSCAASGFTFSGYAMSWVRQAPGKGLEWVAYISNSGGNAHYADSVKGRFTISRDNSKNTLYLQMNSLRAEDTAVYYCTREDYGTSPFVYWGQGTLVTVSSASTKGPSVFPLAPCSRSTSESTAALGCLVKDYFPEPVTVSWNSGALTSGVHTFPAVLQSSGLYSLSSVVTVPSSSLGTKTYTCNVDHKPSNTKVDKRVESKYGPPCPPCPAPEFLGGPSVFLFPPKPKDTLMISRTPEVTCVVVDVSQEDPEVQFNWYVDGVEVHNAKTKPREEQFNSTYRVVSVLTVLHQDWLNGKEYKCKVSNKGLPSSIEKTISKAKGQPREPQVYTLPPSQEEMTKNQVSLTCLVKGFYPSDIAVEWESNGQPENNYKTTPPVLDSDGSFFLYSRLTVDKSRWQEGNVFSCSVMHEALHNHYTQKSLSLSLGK
light: QGQSGQGPCDQNPYFYPYVCHAGGGSSGGSISSGLLSGRSDNHGGGSDIQLTQSPSSLSASVGDRVTITCRASESVDAYGISFMNWFQQKPGKAPKLLIYAASNQGSGVPSRFSGSGSGTDFTLTISSMQPEDFATYYCQQSKDVPWTFGQGTKLEIKRTVAAPSVFIFPPSDEQLKSGTASVVCLLNNFYPREAKVQWKVDNALQSGNSQESVTEQDSKDSTYSLSSTLTLSKADYEKHKVYACEVTHQGLSSPVTKSFNRGEC
In assay [7], B11 showed a dissociation constant Kd of 5.45 nM.

B12: D4 (antibody, V domains shown)
VH: EVQLVESGGGLVQPGGSLRLSCAHSGFSFSSYDMSWVRQAPGKGLEWVATISGGGRYTYYADSVKGRFTISRDNSKNTLYLQMNSLRAEDTAVYYCASNYYGFDYWGQGTLLTVSS
VL: DIQMTQSPSSLSASVGDRVTITCKASQDVGTAVAWYQQKPGKAPKLLIYWASTRHTGVPSRFSGSGSGTDFTLTISSVQPEDFATYYCQQYSSYPWTFGQGTKLEIKR
With B12, the concentration for half-maximal inhibition (IC50) in [1] is 1.95 nM; in [2] it was 2.72 nM. The same molecule showed a dissociation constant Kd in [3] of 5.52 nM.

B13: PD-1 1.5 PD009 2001 (antibody)
heavy: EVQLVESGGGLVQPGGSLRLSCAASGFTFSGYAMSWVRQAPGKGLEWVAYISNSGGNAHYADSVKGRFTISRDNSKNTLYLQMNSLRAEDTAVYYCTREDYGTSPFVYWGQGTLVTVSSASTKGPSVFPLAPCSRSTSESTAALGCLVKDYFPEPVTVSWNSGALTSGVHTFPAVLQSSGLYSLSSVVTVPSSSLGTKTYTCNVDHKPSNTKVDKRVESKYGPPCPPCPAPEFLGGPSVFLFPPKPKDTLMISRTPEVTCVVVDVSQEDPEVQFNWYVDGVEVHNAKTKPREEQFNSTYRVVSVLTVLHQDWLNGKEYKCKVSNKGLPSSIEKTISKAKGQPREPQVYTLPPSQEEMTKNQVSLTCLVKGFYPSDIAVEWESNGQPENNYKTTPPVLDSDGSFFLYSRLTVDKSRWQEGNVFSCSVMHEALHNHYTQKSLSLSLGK
light: QGQSGQGAPRTCYTYQCSSFYTGGGSSGGSISSGLLSGRSDNHGGGSDIQLTQSPSSLSASVGDRVTITCRASESVDAYGISFMNWFQQKPGKAPKLLIYAASNQGSGVPSRFSGSGSGTDFTLTISSMQPEDFATYYCQQSKDVPWTFGQGTKLEIKRTVAAPSVFIFPPSDEQLKSGTASVVCLLNNFYPREAKVQWKVDNALQSGNSQESVTEQDSKDSTYSLSSTLTLSKADYEKHKVYACEVTHQGLSSPVTKSFNRGEC
In [5], B13 displayed a Kd of 0.399 nM.

B14: PD-1 1.5 PD026 2001 (antibody)
heavy: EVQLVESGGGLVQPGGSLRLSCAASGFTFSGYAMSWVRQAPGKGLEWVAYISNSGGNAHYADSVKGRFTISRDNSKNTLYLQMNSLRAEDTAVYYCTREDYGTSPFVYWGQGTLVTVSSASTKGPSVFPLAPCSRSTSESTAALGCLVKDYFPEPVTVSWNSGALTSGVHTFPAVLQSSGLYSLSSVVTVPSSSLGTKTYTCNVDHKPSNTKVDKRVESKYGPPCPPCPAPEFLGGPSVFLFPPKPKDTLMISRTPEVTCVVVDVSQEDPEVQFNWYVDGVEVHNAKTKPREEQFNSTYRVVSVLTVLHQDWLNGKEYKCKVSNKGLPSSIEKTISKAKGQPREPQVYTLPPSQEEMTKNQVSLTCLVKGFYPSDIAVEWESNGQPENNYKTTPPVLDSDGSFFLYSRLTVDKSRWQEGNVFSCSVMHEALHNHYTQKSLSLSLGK
light: QGQSGQGGMCSAYAYSSKLCTIGGGSSGGSISSGLLSGRSDNHGGGSDIQLTQSPSSLSASVGDRVTITCRASESVDAYGISFMNWFQQKPGKAPKLLIYAASNQGSGVPSRFSGSGSGTDFTLTISSMQPEDFATYYCQQSKDVPWTFGQGTKLEIKRTVAAPSVFIFPPSDEQLKSGTASVVCLLNNFYPREAKVQWKVDNALQSGNSQESVTEQDSKDSTYSLSSTLTLSKADYEKHKVYACEVTHQGLSSPVTKSFNRGEC
The molecule B14 had a dissociation constant Kd in assay [6] of 3.75 nM.

B15: PD-1 1.5 PD025 2001 (antibody)
heavy: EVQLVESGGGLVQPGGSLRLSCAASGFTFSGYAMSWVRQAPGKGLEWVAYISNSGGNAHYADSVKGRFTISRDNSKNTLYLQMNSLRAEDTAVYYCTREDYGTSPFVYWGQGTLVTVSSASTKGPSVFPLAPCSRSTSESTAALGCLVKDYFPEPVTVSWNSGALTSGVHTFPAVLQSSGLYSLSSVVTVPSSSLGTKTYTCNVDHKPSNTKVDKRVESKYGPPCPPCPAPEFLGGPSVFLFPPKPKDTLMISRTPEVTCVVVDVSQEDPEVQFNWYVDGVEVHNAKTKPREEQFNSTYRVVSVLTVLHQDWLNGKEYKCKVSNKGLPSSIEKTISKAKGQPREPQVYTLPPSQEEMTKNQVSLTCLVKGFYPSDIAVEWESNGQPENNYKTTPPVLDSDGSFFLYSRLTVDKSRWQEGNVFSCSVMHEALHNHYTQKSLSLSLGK
light: B14 light with G8S, M9R, A12V, A14E, Y15V, K18G, T21D, I22W
In [7], B15 had a dissociation constant (Kd) of 5.22 nM.

B16: PD-1 1.5 PD017 2001 (antibody)
heavy: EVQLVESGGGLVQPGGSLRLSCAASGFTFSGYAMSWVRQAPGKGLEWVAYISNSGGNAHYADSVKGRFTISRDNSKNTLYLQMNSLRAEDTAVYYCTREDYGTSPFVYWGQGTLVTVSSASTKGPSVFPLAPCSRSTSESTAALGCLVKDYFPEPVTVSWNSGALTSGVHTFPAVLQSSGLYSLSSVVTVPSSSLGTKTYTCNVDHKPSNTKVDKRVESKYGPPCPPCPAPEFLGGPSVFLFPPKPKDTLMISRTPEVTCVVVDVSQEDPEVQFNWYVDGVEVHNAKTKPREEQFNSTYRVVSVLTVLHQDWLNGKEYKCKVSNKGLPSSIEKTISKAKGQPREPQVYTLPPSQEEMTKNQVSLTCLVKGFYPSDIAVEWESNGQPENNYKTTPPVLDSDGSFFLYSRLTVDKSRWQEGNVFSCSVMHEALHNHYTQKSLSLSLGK
light: B14 light with G8T, M9T, S11N, A12L, A14Q, Y15Q, K18M, L19F, T21N, I22A
For the molecule B16, binding in assay [4] was put at a Kd of 4.36 nM. This lies in the single-digit nanomolar range.
